According to patent US20250002565A1:

Molecular target: recombinant HIV gp41 (HIV)
Assay: ELISA against recombinant gp41 (in PBS)

B1: recombinant class switched IgA2 antibody (antibody, V domains shown)
VH: QVQLVESGGGVVQPGRSLRLSCAASGFTFSSYAIHWVRQAPGKGLEWVAVISYDGSNRYYADSVKGRFTISRDNSKNTLYLQMNSLRPEDTAVYYCARDRFSAVASTPTYHNYFYMDVWGKGTTVTVSS
EC50: 1.29 mg/L
